These results are taken from article PMC2119935.

What is called Kd is a measure of binding affinity in units of concentration. A low value points to tighter binding.

In this assay the target is F-actin (polymerised rabbit skeletal muscle actin) (rabbit) (UniProt P68135). Kind of assay: co-sedimentation.

As for “GST-ΔFok fusion protein (c-Abl type IV amino acids 1015-1142 fused to GST) (domain or fragment)”, the equilibrium dissociation constant (Kd) is 18 µM.
